Experimental data as given in paper PMC4022583, “The C-Terminal Random Coil Region Tunes the Ca^2+-Binding Affinity of S100A4 through Conformational Activation” (PLoS ONE, 2014).

Key:
[1] = biological target: the molecule itself; assay: pulsed field gradient NMR diffusion; Ca2+-bound: same sample after addition of Ca2+ to 9 mM, 287 K; one and two components fitted for WT
[2] = biological target: T1, S100A4Δ13 (C-terminal deletion mutant, residues 1-88) (human, UniProt P26447 1-88); assay: ITC; 75 µM S100A4Δ13 in the cell titrated with MPT at 25°C (298 K) in the presence of 1 mM CaCl2; details: both partners purified
T1 construct: human S100A4, residues 1-88 (F89-K101 deleted); also called Δ13 mutant; Δ13 S100A4
T1 sequence (P26447 1-88, stated change not applied): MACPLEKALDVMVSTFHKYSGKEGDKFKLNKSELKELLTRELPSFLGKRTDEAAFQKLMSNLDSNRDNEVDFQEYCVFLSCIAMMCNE

B1: S100A4 C-terminal deletion mutant (residues 1-88, Δ13) (domain or fragment)
chain: not shown
notes: also called Δ13 mutant; S100A4Δ13
For B1, which “stoichiometry N” value [1] is on record?
Its value is 2.

B2: NMIIA fragment MPT (Tyr-Arg1894-Lys1937) (peptide)
peptide: YRKLQRELEDATETADAMNREVSSLKNKLRRGDLPFVVPRRMARK
notes: extra N-terminal tyrosine, printed as 'Tyr-Arg1894-Lys1937'; non-muscle myosin IIA (NMIIA) heavy chain, residues Arg1894-Lys1937; also called MPT peptide; myosin IIA fragment; not shown: His10, N-terminal, cleaved; ubiquitin, N-terminal, cleaved
B2 was tested. Which Kd [2] did it give?
The Kd was 14.7 nM.
